# In PMC7054364:
# Target: FITC-labelled type I collagen (UniProt P02453)
# UniProt P02453, sequence (P02453 23-1217, chain 1 of 2): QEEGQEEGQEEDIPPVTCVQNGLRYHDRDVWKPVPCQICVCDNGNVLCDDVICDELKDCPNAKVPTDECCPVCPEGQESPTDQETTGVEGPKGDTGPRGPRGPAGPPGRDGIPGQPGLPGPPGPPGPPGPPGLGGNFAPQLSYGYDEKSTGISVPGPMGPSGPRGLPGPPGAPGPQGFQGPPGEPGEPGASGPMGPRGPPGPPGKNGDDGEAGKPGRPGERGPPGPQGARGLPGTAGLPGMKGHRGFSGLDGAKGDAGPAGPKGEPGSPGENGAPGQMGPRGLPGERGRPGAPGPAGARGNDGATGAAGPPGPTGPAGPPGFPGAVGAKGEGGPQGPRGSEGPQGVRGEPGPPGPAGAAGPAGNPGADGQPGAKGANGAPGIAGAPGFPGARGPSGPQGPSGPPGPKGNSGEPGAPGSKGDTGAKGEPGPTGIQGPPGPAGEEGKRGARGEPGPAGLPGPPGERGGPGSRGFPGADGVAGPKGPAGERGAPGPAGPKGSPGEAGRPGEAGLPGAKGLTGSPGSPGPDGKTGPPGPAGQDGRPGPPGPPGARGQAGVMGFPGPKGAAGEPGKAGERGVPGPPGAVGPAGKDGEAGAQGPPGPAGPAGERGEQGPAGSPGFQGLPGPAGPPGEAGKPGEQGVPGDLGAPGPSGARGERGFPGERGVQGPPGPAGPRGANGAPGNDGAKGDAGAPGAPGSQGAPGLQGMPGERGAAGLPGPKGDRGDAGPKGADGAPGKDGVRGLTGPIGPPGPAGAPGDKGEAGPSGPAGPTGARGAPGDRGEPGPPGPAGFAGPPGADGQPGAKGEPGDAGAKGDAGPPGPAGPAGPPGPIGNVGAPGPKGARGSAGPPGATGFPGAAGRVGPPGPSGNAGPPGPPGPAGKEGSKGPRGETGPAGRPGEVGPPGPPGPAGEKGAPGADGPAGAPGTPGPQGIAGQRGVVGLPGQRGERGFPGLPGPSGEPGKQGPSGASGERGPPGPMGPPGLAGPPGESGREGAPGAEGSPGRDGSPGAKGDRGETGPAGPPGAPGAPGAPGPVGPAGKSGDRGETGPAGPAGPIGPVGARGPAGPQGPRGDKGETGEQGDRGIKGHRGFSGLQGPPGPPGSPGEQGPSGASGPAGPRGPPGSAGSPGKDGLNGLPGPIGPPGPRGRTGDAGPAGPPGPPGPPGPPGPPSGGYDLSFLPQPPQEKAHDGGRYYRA
# UniProt P02453, sequence (P02465 80-1117, chain 2 of 2, further chain): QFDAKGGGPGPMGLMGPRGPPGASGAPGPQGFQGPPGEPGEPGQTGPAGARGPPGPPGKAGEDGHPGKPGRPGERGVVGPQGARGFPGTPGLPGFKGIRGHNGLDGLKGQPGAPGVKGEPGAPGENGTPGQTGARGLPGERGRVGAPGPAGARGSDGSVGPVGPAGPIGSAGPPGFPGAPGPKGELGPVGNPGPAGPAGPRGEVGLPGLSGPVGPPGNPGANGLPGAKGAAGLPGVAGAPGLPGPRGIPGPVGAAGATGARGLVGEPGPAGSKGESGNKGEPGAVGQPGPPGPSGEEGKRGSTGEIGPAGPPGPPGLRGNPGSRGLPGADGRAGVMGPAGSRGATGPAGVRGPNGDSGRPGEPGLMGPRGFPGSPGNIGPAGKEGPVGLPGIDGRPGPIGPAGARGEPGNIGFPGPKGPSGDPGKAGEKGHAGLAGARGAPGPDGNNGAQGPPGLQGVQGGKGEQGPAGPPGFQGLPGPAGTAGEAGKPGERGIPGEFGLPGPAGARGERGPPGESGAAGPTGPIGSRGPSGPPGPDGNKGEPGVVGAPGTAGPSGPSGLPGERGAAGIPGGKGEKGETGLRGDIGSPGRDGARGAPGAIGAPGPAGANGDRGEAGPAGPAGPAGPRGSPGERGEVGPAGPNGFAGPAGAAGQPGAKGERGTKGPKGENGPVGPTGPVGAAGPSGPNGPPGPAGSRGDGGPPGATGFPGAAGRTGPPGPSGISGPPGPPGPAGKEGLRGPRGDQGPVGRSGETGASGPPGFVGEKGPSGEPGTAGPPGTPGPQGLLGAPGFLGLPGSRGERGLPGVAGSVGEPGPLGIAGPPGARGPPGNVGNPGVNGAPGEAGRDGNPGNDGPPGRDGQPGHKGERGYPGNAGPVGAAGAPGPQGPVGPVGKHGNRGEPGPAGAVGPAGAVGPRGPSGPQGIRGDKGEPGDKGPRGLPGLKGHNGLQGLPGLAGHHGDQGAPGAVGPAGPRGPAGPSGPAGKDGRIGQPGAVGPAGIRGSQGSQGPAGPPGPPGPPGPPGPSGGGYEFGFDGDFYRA
row,Substance,"Km of hydrolysis of FITC-labelled type I collagen (Lineweaver-Burk plot; 50 mM Tris-HCl, 0.2 M NaCl, 5 mM CaCl2, pH 7.5, 30 °C) [mM]"
1,purified collagenase product from C. histolyticum,0.00189
2,recombinant 62-kDa collagenase from Grimontia hollisae (enzyme),0.00109
